Measured values reported in publication PMC9317960 (Biochemical Journal, 2022).

Target: T1, SCRIB PDZ3 K1040A (human, UniProt Q14160 1002-1094, K1040A)
T1 sequence: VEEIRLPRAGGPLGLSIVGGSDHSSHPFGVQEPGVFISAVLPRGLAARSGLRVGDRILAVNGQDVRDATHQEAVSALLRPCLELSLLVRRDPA
Assay: ITC
Conditions: both partners purified

B1: TBEV NS5_CTN peptide (C-terminal PBM of NS5) (peptide)
peptide: LRLESSII
- Kd: 12.5 µM
- dH: -6.7 kcal/mol
- stoichiometry N: 0.9
